Source: US8962819B2, “Anti-C5 alpha antibodies” (Adienne S.A., priority 2002, dated 2015)
Entries after “also recorded” stand apart in the source; their conditions may differ.

Experiments:
[1] = test system: binding of the TS-A12/22 antibody to C5; test: Competitive ELISA on solid-phase C5 after pre-incubation of TS-A12/22 with peptide; design: species or system human; settings: 800 ng CS5 or 3.5 μg C5a fragment; highest concentrations used
Description: Binding of the antibody, pre-incubated in different conditions, was assessed by immuno-enzymatic assay using C5 on solid phase.
This peptide corresponds to region 727-744 of the mature protein and comprises the cleavage site of C5 convertase (indicated by the arrow) between […] according to SwissProt numbering for human C5 (SEQ ID P01031). The peptide was used in a competitive ELISA assay on the C5 protein on solid phase. Before binding to the solid phase, the TS-A12/22 antibody was pre-incubated with the PSA-18 peptide, corresponding to amino acids 727-744 of the C5 component, or with an unrelated peptide of sequence […] (SEQ ID NO:16 of sequence listing) corresponding to a fibronectin derived peptide termed CS5.

[2] = target: T1, factor C5 (Homo sapiens, UniProt P01031); test: Surface plasmon resonance (BIACORE 2000) on C5 immobilized on chip; type: binding; settings: read-out: KD calculated
T1 construct: C5 alpha and beta subunits were obtained by incubating 50 μg of C5; purchased Quidel
Description: The binding affinity of the Tsa-12 antibody, purified by means of FPLC on Superdex 75 (Pharmacia), for factor C5 was measured by means of BIACORE™ 2000 (a system that generates unique data on the interactions between proteins and other molecules). The microchip (CM5, Biacore) was prepared by direct conjugation of the C5 antigen with amines (20 μg/ml in 10 mM Sodium Acetate pH 4.5). The final level of immobilisation turned out to be approximately 1000 RU (Resonance Units). Association and dissociation of antibody molecules from the bio-chip were measured using an optical detection system (Surface Plasmon Resonance). The analysis was carried out at 25° C., at a flow of 15 μl/min, using 4 different scFv concentrations in the range comprised between 100-300 nM, in PBS, 0.005% P20 (Biacore). The binding curves were interpolated 1:1 according to the model of Langmuir, using the dedicated software termed BIAevaluation (version 3.5) with correction for the mass transfer. In order to increase the affinity, the TS-A12 antibody was subjected to substitution (“shuffling”) of the VL light chains. For this purpose the phagemid DNA was cut with BssHII and SaII to excise the VL region. This region was substituted with all the repertoire of VL chains of a preimmune library (Sblattero, D., and Bradbury A., 2000, Nat. Biotechnol. 18:75) that was prepared with same enzymes. […]

[3] = target: T2, C5 (Homo sapiens, UniProt P01031); test: ELISA of C5a released after cleavage of C5 by C5 convertase; type: biochemical; settings: FIG. 1A, classical pathway
T2 construct: C5 alpha and beta subunits were obtained by incubating 50 μg of C5; purchased Quidel
Description: (§1) Panel A) The ELISA assay measures the amount of C5a fragment released in the supernatant after enzymatic cleavage of C5, using antibodies anti-C5 as described in example 6. […] Sheep erythrocytes sensitised with antibodies and coated until the C3b (EAC1-3b) complement step were added to the mixture of TS-A12 or TS-A12/22 and C5, and the mixture was further incubated for 30 minutes at 37° C. (panel B).
(§2) The obtained anti-C5 scFv fragments were further characterised for their ability to inhibit the hemolytic activity of C5 or, in other words, to block conversion of the C5 component to C5a. […] At the end of this procedure, cell lysis was measured as percentage of the control of total lysis in distilled H2O (see FIG. 1, panel B). The inhibition of C5a and TCC production by the scFv TS-A12 and TS-A12/22 was measured by means of ELISA using the monoclonal antibody 17/5 as the capture antibody and antibody G25/2 as detection antibody according to what has been described in Opperman et al., 1991, Complement Inflamm. […] The presence of TCC was measured using antibody aE11 as the capture antibody and a biotinylated anti-C5 antibody (SIGMA-ALDRICH®) followed by alkaline phosphatase-conjugated streptavidin, as described by Tedesco et al. (1997, J Exp. Med. 185:1619).

[4] = target: T2, C5; test: Haemolytic assay / TCC ELISA with EAC1-3b sheep erythrocytes and C5 depleted serum; type: biochemical; settings: FIG. 1B
Description: as §1
Sheep erythrocytes (SBRC: Sheep red blood cells) were sensitised with sub-agglutinating amounts of rabbit IgM (EA). […]
as §2

Chain of binding of the TS-A12/22 antibody to C5 (P01031 678-1676 partner limits assumed, one chain of several): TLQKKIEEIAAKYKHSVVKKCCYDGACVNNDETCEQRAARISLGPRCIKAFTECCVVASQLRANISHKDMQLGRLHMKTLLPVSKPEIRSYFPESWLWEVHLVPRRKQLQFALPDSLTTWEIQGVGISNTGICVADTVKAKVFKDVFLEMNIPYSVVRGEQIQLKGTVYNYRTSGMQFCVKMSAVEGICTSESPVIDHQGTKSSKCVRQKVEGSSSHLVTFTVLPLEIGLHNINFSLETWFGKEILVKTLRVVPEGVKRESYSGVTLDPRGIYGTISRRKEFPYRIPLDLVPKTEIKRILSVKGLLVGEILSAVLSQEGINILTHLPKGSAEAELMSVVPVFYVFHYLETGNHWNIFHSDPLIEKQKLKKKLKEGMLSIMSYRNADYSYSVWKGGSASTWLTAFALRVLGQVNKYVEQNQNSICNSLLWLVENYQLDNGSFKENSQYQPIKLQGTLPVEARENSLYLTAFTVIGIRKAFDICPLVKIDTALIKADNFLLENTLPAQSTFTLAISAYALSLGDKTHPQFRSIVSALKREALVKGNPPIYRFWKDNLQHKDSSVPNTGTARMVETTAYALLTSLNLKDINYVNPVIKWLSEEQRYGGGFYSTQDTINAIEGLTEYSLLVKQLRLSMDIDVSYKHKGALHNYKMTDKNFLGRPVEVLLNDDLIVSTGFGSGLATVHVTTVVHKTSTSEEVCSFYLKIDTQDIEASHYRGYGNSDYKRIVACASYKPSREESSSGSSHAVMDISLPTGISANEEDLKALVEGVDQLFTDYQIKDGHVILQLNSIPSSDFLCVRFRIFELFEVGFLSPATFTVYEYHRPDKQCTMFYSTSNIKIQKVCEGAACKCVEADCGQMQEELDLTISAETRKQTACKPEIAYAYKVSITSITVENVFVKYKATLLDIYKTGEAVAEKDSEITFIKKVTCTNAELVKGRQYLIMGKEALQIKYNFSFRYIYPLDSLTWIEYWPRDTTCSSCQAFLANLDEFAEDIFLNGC
Chain of binding of the TS-A12/22 antibody to C5 (P01031 19-673 partner limits assumed, one chain of several): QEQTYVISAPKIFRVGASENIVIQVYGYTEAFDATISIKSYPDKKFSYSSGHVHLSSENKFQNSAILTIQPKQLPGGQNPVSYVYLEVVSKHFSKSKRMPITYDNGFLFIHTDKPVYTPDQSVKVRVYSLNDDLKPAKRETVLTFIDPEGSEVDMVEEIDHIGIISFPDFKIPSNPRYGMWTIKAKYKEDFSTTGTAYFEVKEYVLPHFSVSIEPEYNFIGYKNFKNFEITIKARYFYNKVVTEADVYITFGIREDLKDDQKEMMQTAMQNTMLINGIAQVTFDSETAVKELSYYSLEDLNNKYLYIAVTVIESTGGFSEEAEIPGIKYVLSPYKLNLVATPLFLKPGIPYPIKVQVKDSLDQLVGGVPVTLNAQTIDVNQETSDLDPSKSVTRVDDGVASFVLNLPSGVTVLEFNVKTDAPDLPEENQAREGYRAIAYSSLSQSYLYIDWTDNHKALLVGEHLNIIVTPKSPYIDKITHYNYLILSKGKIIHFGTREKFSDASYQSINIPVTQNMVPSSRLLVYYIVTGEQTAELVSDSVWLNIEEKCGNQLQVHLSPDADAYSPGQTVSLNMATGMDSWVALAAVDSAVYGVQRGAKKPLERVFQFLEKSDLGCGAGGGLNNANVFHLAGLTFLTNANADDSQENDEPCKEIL
T2 sequence (P01031 678-1676 limits assumed): as the sequence (P01031 678-1676 partner limits assumed, one chain of several) above
T2 sequence (P01031 19-673 partner limits assumed): as the sequence (P01031 19-673 partner limits assumed, one chain of several) above
T1 sequence (P01031 678-1676 limits assumed): as the sequence (P01031 678-1676 partner limits assumed, one chain of several) above
T1 sequence (P01031 19-673 partner limits assumed): as the sequence (P01031 19-673 partner limits assumed, one chain of several) above

## GEEIQIGHIPREDVDYHLYP (PEPTIDE (1)..(20) fibronectin derived peptide; listed as Homo sapiens) [CS5, unrelated fibronectin derived peptide]
[1]
  inhibition of binding of TS-A12/22 to C5 (in words): ineffective; also recorded: NO inhibition

B1: TS-A12: human anti-C5 single chain scFv antibody clone selected from a naive phage library (protein, listed as Homo sapiens)
scFv: DIRMTQSPDSLAVSLGERATINCKSSQSVLYSSNNKNYLAWYQQKPGQPPKLLIYWASTRESGVPDRFSGSGSGTDFTLTISSLQAEDVAVYYCQQYYSTPQLTFGGRTKVDIKSGGSTITSYNVYYTKLSSSGTQVQLQQSEGGVVQPGRSLRLSCAASGFTFSSYGMNWVRQAPGKGLEWVSYISSSSSTIYYADSVKGRFTISRDNSKNTLYLQMNSLRAEDTAVYYCARGPGMDVWGQGTTVTVSS
[2]
  Kd: 200 nM
[3]
  inhibition of formation of C5a: inhibit almost completely
[4]
  inhibition of formation of TCC: inhibit almost completely

B2: C5A: C5a fragment; human recombinant C5a component purchased from SIGMA-ALDRICH (protein, UniProt P01031 678-751, looked up)
C5a anaphylatoxin: TLQKKIEEIAAKYKHSVVKKCCYDGACVNNDETCEQRAARISLGPRCIKAFTECCVVASQLRANISHKDMQLGR
modifications: C5a anaphylatoxin
notes: C5a fragment; human recombinant C5a component purchased from SIGMA-ALDRICH
[1]
  inhibition of binding of TS-A12/22 to C5 (in words): NO inhibition
